“Also recorded” adds a separate entry of the source. Marks after values point to notes of the source that are not given here.
Columns and labels:
SD rats [1] = test: Rat clotting time after i.v. injection, PT; assay type: in vivo; conditions: for Clotting time PT: rat plasma 2 min after injection
Description: (§1) 40 SPF grade male SD rats (provided by the laboratory animal center of Guangdong Medical College, 300-350 g body weight) were randomly divided into a line group, and rNAPTin-1 low-dose (100 μg·kg^−1), middle-dose (1 mg·kg^−1), high dose group (5 mg·kg^−1), 10 rats each group. 2 min after intravenous injection of various rNAPTin-1, blood was harvested from animal heart, and injected into an anticoagulant tube (3.8% sodium citrate). Animal plasma was separated by centrifugation (1500×g, 10 mins) and was used to measure aPTT and PT.

human fXIIa = target: T1, human fXIIa (Homo sapiens, UniProt P00748); test: Chromogenic assay, fXIIa; assay type: biochemical
T1 construct: Human coagulation factors IIa (thrombin), Xa, XIa, XIIa, EGR-fXa; purchased Haematologic Technologies Inc (United States)
T1 sequence (P00748 373-615 limits assumed): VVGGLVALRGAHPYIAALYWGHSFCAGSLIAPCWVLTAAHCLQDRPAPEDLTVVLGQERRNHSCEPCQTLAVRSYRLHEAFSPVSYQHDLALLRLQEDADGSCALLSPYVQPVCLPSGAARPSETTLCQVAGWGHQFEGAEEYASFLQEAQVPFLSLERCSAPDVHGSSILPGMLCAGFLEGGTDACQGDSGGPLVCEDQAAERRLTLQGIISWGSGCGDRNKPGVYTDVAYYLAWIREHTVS
T1 sequence (P00748 20-372 limits assumed): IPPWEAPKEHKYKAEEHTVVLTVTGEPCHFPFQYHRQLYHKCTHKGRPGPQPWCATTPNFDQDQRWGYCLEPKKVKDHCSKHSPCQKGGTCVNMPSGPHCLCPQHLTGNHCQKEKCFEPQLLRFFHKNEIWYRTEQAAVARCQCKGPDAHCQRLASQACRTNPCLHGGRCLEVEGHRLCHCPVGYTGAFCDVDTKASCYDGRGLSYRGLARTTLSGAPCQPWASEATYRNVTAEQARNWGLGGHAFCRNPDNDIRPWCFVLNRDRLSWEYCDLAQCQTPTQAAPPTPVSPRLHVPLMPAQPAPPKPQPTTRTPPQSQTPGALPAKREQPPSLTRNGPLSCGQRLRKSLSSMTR
Excerpt: (§2) The recombinant anticoagulant polypeptides in the present invention were expressed in E. coli and purified in our laboratory, of which the activities against coagulation factors were investigated by chromogenic assays. Human coagulation factors IIa (thrombin), Xa, XIa, XIIa, EGR-fXa were products of Haematologic Technologies Inc (United States). Recombinant fVIIa was products of Novo-Nordisk (Denmark). Recombinant soluble tissue factor (sTF) was purchased from Protgen (Beijing, China). The following chromogenic substrates were used for these coagulation factor assays: S2765 for human fXa, S2288 for human fVIIa and fIIa, 52366 for human fXIa and fXIIa, respectively.
(§3) The chromogenic assays were carried out in a total reaction volume of 100 μl in individual wells of a 96-well microtiter plate. 50 μl fIIa, fXa, fXIa, or fXIIa (final concentration: 1 nM) was incubated with 10 μl recombinant anticoagulant polypeptide at various concentrations (or PBS control group) Assays for the detection activity of fVIIa: 50 μl fVIIa+TF (1 μM) and EGR-fXa (final concentration 500 nM) was incubated for 15 mins at 25° C., respectively. After the addition of 40 μl of prewarmed chromogenic substrate to a final concentration of 400 μM, the changes of absorbance at 405 nm were monitored by using an E1x808 kinetic microtiter reader. The data were used to calculate the velocities of response.

BALb/c mice = test: Mouse tail bleeding time; assay type: in vivo; conditions: tail transected after 10 min
Description: After 10 min, the distal tip 1.5 mm of the mouse tail was transected and the blood oozed was soaked with filter paper very 30 seconds until the bleeding stops. The bleeding time was defined as the time elapsed from the tail transection to the stoppage of bleeding.

human fXa = target: T2, human fXa (Homo sapiens, UniProt P00742); test: Chromogenic assay, fXa; assay type: biochemical
T2 construct: Human coagulation factors IIa (thrombin), Xa, XIa, XIIa, EGR-fXa; purchased Haematologic Technologies Inc (United States)
Excerpt: as §2, §3

SD rats [2] = test: Rat clotting time after i.v. injection, aPTT; assay type: in vivo; conditions: for Clotting time aPTT: rat plasma 2 min after injection
Description: as §1

human fIIa (thrombin) = target: T3, human fIIa (thrombin) (Homo sapiens, UniProt P00734); test: Chromogenic assay, fIIa (thrombin); assay type: biochemical
T3 construct: Human coagulation factors IIa (thrombin), Xa, XIa, XIIa, EGR-fXa; purchased Haematologic Technologies Inc (United States)
Excerpt: as §2, §3

SD rats [3] = test: Rat inferior vena cava (venous) thrombosis; assay type: in vivo; conditions: for Thrombosis rate: rats with thrombus / rats, 4 hours after ligation
Description: 40 SPF grade male SD rats (provided by the laboratory animal center of Guangdong Medical College, 300-350 g body weight) were randomly divided into saline group, and rNAPTin-1 low-dose (100 μg·kg^−1), middle-dose (1 mg·kg^−1), high dose group (5 mg·kg^−1), 10 rats each group, respectively. These rats were anaesthetized with 10% chloral hydrate (250 mg/kg) by intraperitoneal injection. […] The abdominal cavity was reopened after 4 hours, and the ligated segment was opened longitudinally to check for whether there is thrombus.

T2 sequence (P00742 41-179 limits assumed): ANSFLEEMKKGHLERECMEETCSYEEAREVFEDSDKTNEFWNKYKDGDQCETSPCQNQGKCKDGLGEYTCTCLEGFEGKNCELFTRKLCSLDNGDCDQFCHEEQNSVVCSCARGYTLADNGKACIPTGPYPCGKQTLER
T2 sequence (P00742 235-488 limits assumed): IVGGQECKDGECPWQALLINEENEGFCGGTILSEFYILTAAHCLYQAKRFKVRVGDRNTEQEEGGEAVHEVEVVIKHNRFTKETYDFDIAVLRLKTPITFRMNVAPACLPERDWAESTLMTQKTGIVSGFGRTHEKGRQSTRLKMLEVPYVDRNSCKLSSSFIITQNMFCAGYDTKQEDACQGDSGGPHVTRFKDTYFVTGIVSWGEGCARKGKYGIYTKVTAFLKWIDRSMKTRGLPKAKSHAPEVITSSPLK

B1: NAPTin-1 (protein)
chain: NPSCGENERHDECSRKECDPKCKYDGTEEKDDEKPVVCLTRVCYGDCICRDGFLRNKNGACVKAEDCELD
modifications: Sequence derived from Ancylostoma caninum or Synthetic
SD rats [1]; 0.1 mg/kg i.v.
  Clotting time PT: 11.8 ± 0.5
SD rats [1]; 1.0 mg/kg i.v.
  Clotting time PT: 12.0 ± 0.3
SD rats [1]; 5.0 mg/kg i.v.
  Clotting time PT: 11.5 ± 0.8
SD rats [1]; 0.1-5 mg/kg i.v.
  effect on rat PT (in words): not prolonged PT
Human fXIIa; 100 nM
  effect on fXIIa activity (in words): without affecting
Human fXIIa; 200 nM
  effect on fXIIa activity (in words): without affecting
BALb/c mice; 100 μg·kg^−1 tail vein
  Bleeding time: 8.34 ± 1.7 min
BALb/c mice; 1 mg·kg^−1 tail vein
  Bleeding time: 8.30 ± 2.1 min
BALb/c mice; 5 mg·kg^−1 tail vein
  Bleeding time: 8.28 ± 2.3 min
Human fXa; 100 nM
  effect on fXa activity (in words): without affecting; also recorded: no significant inhibitory activity
Human fXa; 200 nM
  effect on fXa activity (in words): without affecting
SD rats [2]; 0.1 mg/kg i.v.
  Clotting time aPTT: 23.5 ± 2.1
SD rats [2]; 1.0 mg/kg i.v.
  Clotting time aPTT: 56.3 ± 5.1
SD rats [2]; 5.0 mg/kg i.v.
  Clotting time aPTT: 136.7 ± 35.5
SD rats [2]; 0.1-5 mg/kg i.v.
  effect on rat aPTT (in words): prolonged significantly aPTT
Human fIIa (thrombin); 100 nM
  effect on fIIa activity (in words): without affecting
Human fIIa (thrombin); 200 nM
  effect on fIIa activity (in words): without affecting
SD rats [3]; 0.1 mg/kg i.v.
  Inhibition rate %: 80%
  Thrombosis rate: 2/10*
SD rats [3]; 1.0 mg/kg i.v.
  Inhibition rate %: 100%
  Thrombosis rate: 0/10*
SD rats [3]; 5.0 mg/kg i.v.
  Inhibition rate %: 100%
  Thrombosis rate: 0/10*
SD rats [3]; rat, in vivo
  effect on rat venous thrombosis (in words): significant antithrombotic effect

— patent US9243044B2, “Anticoagulant polypeptide and applications thereof” (GUANGDONG MEDICAL COLLEGE, priority 2011, dated 2016)
